The series can be described thus: yeast display, Sf9 membrane polyspecificity reagent, FACS + sequencing; frameworks hold sequencing errors. In outline:
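Using colony PCR, genes from sorted yeast display clones were amplified, then sequenced on MiSeq at 2 × 250 and filtered by CDR length. The clones had been stained with 10% biotinylated, detergent-solubilized Sf9 membrane reagent for 1 hour at 4 °C and sorted by FACS into low and high (top ~1%) gates on anti-HA and streptavidin fluorescence. Polyreactivity labels come from the gate of origin.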
As for “QVQLVESGGGLVQSGGSLRLSCAASGFIFRWYAMGWYRQAPGKERELVASIDWSGTRTNYADSVKGRFTISRDNAKNTVYLQMNSLKPEDTAVYYCNAVPTSLGETDYDYWGQGTQVTVSS”, the “polyreactivity (PSR sort gate)” value is recorded as “low polyreactivity”.

For “QVQLVESGGGLVQSGGSLRLSCAASGFTFGGYAMGWYRQAPAKERELVAAISQSGGRTYYADSVKGRFTISRDNAKITVYLQMNSLKPEDTAVYYCAKPSTTYYQRGDYWGQGTQVTVSS”, the “polyreactivity (PSR sort gate)” value is on record as “high polyreactivity”.

On to “QVQLVESGGGLVQSGGSLRLSCAASGFTFPNNAMGWYRLAPGKERELVAAITWSGGSTYADSVKGRFTISRDNAKNTVYLQMNSLKPEETAVYFCNTRGTYLSKTLPSAYDYWGQGTQVTVSS”, for which the “polyreactivity (PSR sort gate)” value was “low polyreactivity”.

Turning to “QVQLVESGGGLVQSGGSLRLSCAASGFTFSRYAMGWYRQAPGKERELVAAINWSGGSTYYADSVKGRFTISRDNAKNTVYLQMNSLKPEDTAVYSCAKPAGGSGYDSWGQGTQVTVSS”, the “polyreactivity (PSR sort gate)” value is listed as “high polyreactivity”.

Regarding “QVQLVESGGGLVQSGGSLRLSCAASGIKFYYNARGWYRPAPGKERELVARITWRAGSTYYADSVKGRFTISRDNAKNTVYLQMNSLKPEDTAVYYCNADHDGLGYYFWGQGTQVTVSS”, the “polyreactivity (PSR sort gate)” value is listed as “high polyreactivity”.

With “QVQLVESGGGLVQSGGSLRLSCAASGITTRTYAMGWYRQAPGKDRELVAAISDSGDRTYYADSVKGRFTISRDNAKNTVYLQMNSLKPEDTAVYYCAVDAPGPRGEYWGQGTKVTVSS”, the “polyreactivity (PSR sort gate)” value is “low polyreactivity”.

Regarding “QVQLVESGGGLVQSGGSLRLSCAASGRIFGKYAMGWYRQAPGKERELVARISFSGGTTYYADSVKGRFTISRDNAKNTVYLQMYSLKPEDTAVYYCSARSVWSQRWAYDSWGQGTQVTVSS”, the “polyreactivity (PSR sort gate)” value is on record as “high polyreactivity”.

As to “QVQLVESGGGLVQSGGSLRLSCAASGRTFYHYAMGWYRQAHGKERELVATITRNGGITYYADSVKGRFTISRDNAKNTVYLQMNSLKPEDTAVYYCIKRWGGPIQFDYWGQGTEVTVSS”, the “polyreactivity (PSR sort gate)” value is given as “low polyreactivity”.

Consider “QVQLVESGGGLVQSGGSLRLSCAASGRTFYYYTMGWYRPAPGKVRELVAAIYRVGSTYYADSVKGRFTISRDNAKNTVYLQMNSLKPEDTADYYCNAVLRFGWYWVDYWGQGTQVTVSS”, for which the “polyreactivity (PSR sort gate)” value is reported as “high polyreactivity”.

With “QVQLVESGGGLVQSGGSLRLSCAASGSIFSAYAMGWYRQAPGKEREFVAAITRRGGNTYYADSVKGRFTISRDNAQNTVYLQMNSLKPEDSAVYYCAADAGGGPFDYWGQGTQVSVSS”, the “polyreactivity (PSR sort gate)” value is reported as “low polyreactivity”.

For “QVQLVESGGGLVQSGGSLRLSCAASGSIFSYYAMGWYRQAPGKEREFVAPHSRSGGSTYYADSVKGRFTISRDNGKNTVYLQMKSLKPEDTAVYYCNAYSYSDAGDDGDYWGQGTQVTVSS”, the “polyreactivity (PSR sort gate)” value is reported as “low polyreactivity”.

On to “QVQLVESGGGLVQSGGSLRLSCAASGSILYGYAMGWYRQAPGKERELVAAIRWTGGSTYYADSVKGRFTISRDNAKNTVYLQMNSLKPEDTAVYFCAAEYNLRTYWGDYWGQGTQVTVSS”, for which the “polyreactivity (PSR sort gate)” value is reported as “low polyreactivity”.

In the case of “QVQLVESGGGLVQSGGSLRLSCAASGSTFDYNAMGWYRQPPGKERELVAAINSGASTYYADSVKGRFTISRDNAKNTVYLLMNSLKPEDTAVYYCAKDYLYIGDYWGQGTQVTVSS”, the “polyreactivity (PSR sort gate)” value was “low polyreactivity”.

As for “QVQLVESGGGLVQSGGSLRLSCAASGSTFHTYAMGWYRQAPGKERELFASIRTSGGSTNADSVKGRFTISRDNAKNTVYLQMNSLNPEDTAVYYCAAYYFYGLYDAYYYWGQGTEVTVSS”, the “polyreactivity (PSR sort gate)” value is “low polyreactivity”.

For the sequence “QVQLVESGGGLVQSGGSLRLSCAASGSTFLWYAMGWYRPAPGKERELVASISRGGGTDYADSVKGRFTISRDNAKKTVYLQMNSLIPEDTAVYYCAATGVYRYDHWGQGTQVTVSS”, the “polyreactivity (PSR sort gate)” value is “low polyreactivity”.

For the sequence “QVQLVESGGGLVQSGGSLRLSCAASGSTFNGYAMGWYRQAPGKERELVAGITGSGGSTYYADSVKGRFTISRDNAKNTVYLQMNSLKPEDTAVYYCKAVHWGGSYWGLDYWGQGTQVTVSS”, the “polyreactivity (PSR sort gate)” value is recorded as “low polyreactivity”.

In the case of “QVQLVESGGGLVQSGGSLRLSCAASGSTSINYAMGWYRQAPGKERELVATISRGGSTTYADSVKGRFTISRDNAKNTVYLQMNSLKPEATAVYYCAKDRYPADEDYWGQGTQVTVSS”, the “polyreactivity (PSR sort gate)” value is “low polyreactivity”.
